# Read-outs that look alike come from different tables or passages of the source.
# T1: human NPR1 (hNPR1) with a C-term myc and FLAG tag, stably expressed on HEK293 cells (human, UniProt P16066 33-1061)
# T1 sequence: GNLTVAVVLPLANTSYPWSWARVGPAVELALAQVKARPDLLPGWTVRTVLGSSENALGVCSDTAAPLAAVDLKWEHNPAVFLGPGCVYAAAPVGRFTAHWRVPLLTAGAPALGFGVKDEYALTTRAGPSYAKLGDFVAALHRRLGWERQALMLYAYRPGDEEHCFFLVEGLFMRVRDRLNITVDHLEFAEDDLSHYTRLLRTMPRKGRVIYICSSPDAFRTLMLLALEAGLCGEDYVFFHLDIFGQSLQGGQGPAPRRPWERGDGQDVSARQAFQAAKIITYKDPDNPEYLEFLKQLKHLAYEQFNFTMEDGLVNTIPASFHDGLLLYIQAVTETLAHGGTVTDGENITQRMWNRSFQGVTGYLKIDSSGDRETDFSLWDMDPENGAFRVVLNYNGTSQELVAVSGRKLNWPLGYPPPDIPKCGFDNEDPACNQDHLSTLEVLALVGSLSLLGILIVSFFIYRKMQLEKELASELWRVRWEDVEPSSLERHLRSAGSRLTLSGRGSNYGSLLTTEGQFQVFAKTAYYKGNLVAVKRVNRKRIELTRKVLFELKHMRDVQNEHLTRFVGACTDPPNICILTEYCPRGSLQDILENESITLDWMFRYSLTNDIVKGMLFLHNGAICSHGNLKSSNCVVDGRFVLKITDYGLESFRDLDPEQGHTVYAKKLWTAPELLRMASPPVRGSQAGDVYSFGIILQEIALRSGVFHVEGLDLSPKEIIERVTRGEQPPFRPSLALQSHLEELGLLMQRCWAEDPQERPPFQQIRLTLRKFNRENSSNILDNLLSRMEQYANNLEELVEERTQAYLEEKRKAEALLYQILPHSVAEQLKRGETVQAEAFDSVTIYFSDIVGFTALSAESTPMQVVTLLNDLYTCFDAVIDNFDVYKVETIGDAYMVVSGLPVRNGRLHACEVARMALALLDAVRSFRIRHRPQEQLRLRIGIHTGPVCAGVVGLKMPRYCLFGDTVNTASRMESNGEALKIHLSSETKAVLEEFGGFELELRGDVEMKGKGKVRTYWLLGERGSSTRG
# B1: REGN9035 (antibody, human IgG4 S228P, kappa)
# heavy: QVQLVESGGGVVQPGRSLRLSCAASGFTFSSYGMHWVRQAPGKGLEWVALIWFDGGYKYYADSVKGRFTISRDNSKNTLYLQMNSLRADDTAVYYCARGSAAAGHVPFDYWGQGILVTVSSASTKGPSVFPLAPCSRSTSESTAALGCLVKDYFPEPVTVSWNSGALTSGVHTFPAVLQSSGLYSLSSVVTVPSSSLGTKTYTCNVDHKPSNTKVDKRVESKYGPPCPPCPAPEFLGGPSVFLFPPKPKDTLMISRTPEVTCVVVDVSQEDPEVQFNWYVDGVEVHNAKTKPREEQFNSTYRVVSVLTVLHQDWLNGKEYKCKVSNKGLPSSIEKTISKAKGQPREPQVYTLPPSQEEMTKNQVSLTCLVKGFYPSDIAVEWESNGQPENNYKTTPPVLDSDGSFFLYSRLTVDKSRWQEGNVFSCSVMHEALHNRFTQKSLSLSPGK
# chain: not shown
# light: not shown
# notes: Monovalent (one-armed) human IgG4: one full heavy chain, one light chain and one truncated heavy chain (Fc); also called one-armed anti-R5381 antibody; monovalent anti-R5381 mAb
# B2: R5381 (antibody, V domains shown)
# VH: QVQLVQSGAEVKKPGASVTVSCKASGYTFTDYYMHWVRQAPGQGLEWMGWIKPNSGGTNSAQRFQGRITMTWDTSISTAYMELSRLRSDDTAVYYCSRGGPVMNYYYYYGMDVWGQGTTVTVSS
# VL: NIQMTQSPSSLSASVGDRVTITCRASQSIDSYLNWYQQKPGKAPKLLIYVASSLQSGVPSRFSGSGSGKDFTLTISSLQPEDFATYYCQQSYSIPTFGQGTRLEIKR
# B3: REGN9037 (antibody, human IgG4 S228P, kappa)
# heavy: QVQLQESGPGLVKPSETLSLTCTVSGASISTYYWSWIRQPPGKGLEWIGYIYYSGTTNYNPSLKSRVTISVDTSKNQFSLKLSSVTAADTAVYYCARDRGGYDGEWGQGTLVTVSSASTKGPSVFPLAPCSRSTSESTAALGCLVKDYFPEPVTVSWNSGALTSGVHTFPAVLQSSGLYSLSSVVTVPSSSLGTKTYTCNVDHKPSNTKVDKRVESKYGPPCPPCPAPEFLGGPSVFLFPPKPKDTLMISRTPEVTCVVVDVSQEDPEVQFNWYVDGVEVHNAKTKPREEQFNSTYRVVSVLTVLHQDWLNGKEYKCKVSNKGLPSSIEKTISKAKGQPREPQVYTLPPSQEEMTKNQVSLTCLVKGFYPSDIAVEWESNGQPENNYKTTPPVLDSDGSFFLYSRLTVDKSRWQEGNVFSCSVMHEALHNRFTQKSLSLSPGK
# chain: not shown
# light: not shown
# notes: as for B1
# B4: REGN6580 (antibody, human IgG4 S228P, kappa, V domains shown)
# VH: QVQLVESGGGVVQPGRSLRLSCAASGFTFSSYGMHWVRQAPGKGLEWVALIWFDGGYKYYADSVKGRFTISRDNSKNTLYLQMNSLRADDTAVYYCARGSAAAGHVPFDYWGQGILVTVSS
# VL: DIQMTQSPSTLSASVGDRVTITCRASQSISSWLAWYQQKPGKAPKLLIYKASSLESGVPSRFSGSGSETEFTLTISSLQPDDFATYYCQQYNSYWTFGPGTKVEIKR
# notes: Bivalent human IgG4; also called bivalent anti-R5381 mAb; anti-idiotype antibody
# B5: REGN6581 (antibody, human IgG4 S228P, kappa, V domains shown)
# VH: QVQLQESGPGLVKPSETLSLTCTVSGASISTYYWSWIRQPPGKGLEWIGYIYYSGTTNYNPSLKSRVTISVDTSKNQFSLKLSSVTAADTAVYYCARDRGGYDGEWGQGTLVTVSS
# VL: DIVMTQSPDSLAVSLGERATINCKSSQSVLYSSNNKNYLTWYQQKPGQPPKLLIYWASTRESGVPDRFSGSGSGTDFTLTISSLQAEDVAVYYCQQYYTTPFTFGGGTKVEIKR
# notes: as for B4
# Assays:
# R5381 [1] = biological target: B2; assay: cell-based or functional assay
# REGN1945 [2] = assay: cell-based or functional assay
# R5381 [3] = biological target: B2; assay: cell-based or functional assay; remark: listed apart in the source
# H2aM22033N [4] = biological target: T2, H2aM22033N; assay: SPR Biacore T200, H2aM22033N captured via anti-mouse Fc, analyte injected, 25 C, pH 7.4
# T2 construct: also called parental hybridoma of R5381
# Experimental: (§1) All binding studies were performed in 10 mM HEPES, 150 mM NaCl, 3 mM EDTA, and 0.05% v/v Surfactant Tween-20, pH 7.4 (HBS-ET) running buffer at 25° C. and 37° C. The Biacore CM5 sensor chip surface was first derivatized by amine coupling with anti-mouse Fc specific antibody (GE Healthcare, # BR100838) to capture H2aM22033N. […] The dissociation of different mAbs bound to H2aM22033N was monitored for 10 minutes in HBS-ET running buffer. At the end of each cycle, the H2aM22033N capture surface was regenerated using a 60 sec injection of 10 mM Glycine-HCl, pH 1.5. The association rate (kₐ) and dissociation rate (kd) were determined by fitting the real-time binding sensorgrams to a 1:1 binding model with mass transport limitation using Scrubber 2.0c curve-fitting software. Binding dissociation equilibrium constant (KD) and dissociative half-life (t½) were calculated from the kinetic rates as:
# H2aM22033N [5] = biological target: T2, H2aM22033N; assay: SPR Biacore T200, H2aM22033N captured via anti-mouse Fc, analyte injected, 37 C, pH 7.4
# Experimental: as §1
# R5381 [6] = biological target: B2; assay: blocking ELISA: antibody pre-bound to 95 pM Biotin-R5381, binding to coated hNPR1.ecto.mmh read
# Experimental: After 1 hour, incubation at RT, the pre-bind reaction mix was transferred to microtiter plates coated with hNPR1.ecto.mmh. The microtiter plates were incubated at RT for 1 hour and then washed with plate washing solution. […] The plates were incubated with detection protein for 1 hour at RT and then washed with plate washing solution. The assay plates were developed with TMB colorimetric substrates according to the manufacturer's recommended procedure.
# The absorbance at 450 nm for each well was recorded and plotted as the function of the concentration of antibody. Data was analyzed in GraphPad Prism software using a four-parameter logistic equation over an 11-point dose response curve and IC₅₀ values were calculated.
# H2aM22033N [7] = biological target: T2, H2aM22033N; assay: SPR Biacore 4000, H2aM22033N captured via anti-mouse Fc, 37 C, association pH 7.4, dissociation pH 7.4
# Experimental: (§2) All binding studies were performed at 37° C. using four running buffers, (i) PBS, 0.05% v/v Surfactant Tween-20, pH 7.4 (PBS-T-pH 7.4), (ii) PBS, 0.05% v/v Surfactant Tween-20, pH 6.5 (PBS-T-pH 6.5), (iii) PBS, 0.05% v/v Surfactant Tween-20, pH 6.0 (PBS-T-pH 6.0), and (iv) PBS, 0.05% v/v Surfactant Tween-20, pH 5.0 (PBS-T-pH 5.0).
# (§3) The dissociation rate constants (kd) in four pH running buffers were determined by fitting the real-time binding sensorgrams to a 1:1 binding model using Scrubber 2.0c curve-fitting software. The dissociative half-life (t½) was calculated from the kd values as:
# H2aM22033N [8] = biological target: T2, H2aM22033N; assay: SPR Biacore 4000, H2aM22033N captured via anti-mouse Fc, 37 C, association pH 7.4, dissociation pH 6.5
# Experimental: as §2, §3
# H2aM22033N [9] = biological target: T2, H2aM22033N; assay: SPR Biacore 4000, H2aM22033N captured via anti-mouse Fc, 37 C, association pH 7.4, dissociation pH 6.0
# Experimental: as §2, §3
# H2aM22033N [10] = biological target: T2, H2aM22033N; assay: SPR Biacore 4000, H2aM22033N captured via anti-mouse Fc, 37 C, association pH 7.4, dissociation pH 5.0
# Experimental: as §2, §3
# [11] = biological target: T1, human NPR1 (hNPR1) with a C-term myc …; assay: cell-based or functional assay
# REGN1945 [12] = assay: cell-based or functional assay; remark: listed apart in the source
# R5381 [13] = biological target: B2; assay: cell-based or functional assay; remark: listed apart in the source
"IC50 of inhibition of 70 nM R5381-induced cGMP, 40 pM ANP (R5381 [1]) [M]","IC50 of inhibition of 70 nM R5381-induced cGMP, 80 pM BNP (R5381 [1]) [M]","IC50 of inhibition of 70 nM R5381-induced cGMP, no ligand (R5381 [1]) [nM]","Max Inh. (%) of 70 nM R5381-induced cGMP, 40 pM ANP (R5381 [1]) [%]","Max Inh. (%) of 70 nM R5381-induced cGMP, 80 pM BNP (R5381 [1]) [%]","Max Inh. (%) of 70 nM R5381-induced cGMP, no ligand (R5381 [1]) [%]",C1q-CIC assay Final Value; 100 nM antibody + 100 nM antigen; Result Neg (REGN1945 [2]) [ug Eq/mL],C1q-CIC assay Final Value; 1 uM antibody + 100 nM antigen; Result Neg (REGN1945 [2]) [ug Eq/mL],100 nM Ag Bound (RU) (H2aM22033N [4]),Kd (H2aM22033N [4]) [nM],koff (H2aM22033N [4]) [s⁻¹],kon (H2aM22033N [4]) [M⁻¹ s⁻¹],t1/2 (H2aM22033N [4]) [min],100 nM Ag Bound (RU) (H2aM22033N [5]),Kd (H2aM22033N [5]) [nM],koff (H2aM22033N [5]) [s⁻¹],kon (H2aM22033N [5]) [M⁻¹ s⁻¹],t1/2 (H2aM22033N [5]) [min],% Blocking with 333.33 nM antibody (R5381 [6]) [%],IC50 (R5381 [6]) [nM],Binder,also measured
2.66e-08,4.13e-08,46,104,97,100,0.15,0.2,47,1.76,0.000132,75100,87,81,5.78,0.00086,149000,13,99.3,2.04,B1,C1q-CIC assay Final Value; 100 nM antibody + 100 nM antigen; Result Neg (R5381 [3]): 0.18 ug Eq/mL; C1q-CIC assay Final Value; 1 uM antibody + 100 nM antigen; Result Neg (R5381 [3]): 0.29 ug Eq/mL; koff (H2aM22033N [7]): 0.000996 s⁻¹; t1/2 (H2aM22033N [7]): 12 min; koff (H2aM22033N [8]): 0.00142 s⁻¹; t1/2 (H2aM22033N [8]): 8 min; koff (H2aM22033N [9]): 0.00294 s⁻¹; t1/2 (H2aM22033N [9]): 3.9 min; koff (H2aM22033N [10]): 0.0197 s⁻¹; t1/2 (H2aM22033N [10]): 0.6 min
–,–,–,–,–,–,–,–,–,–,–,–,–,–,–,–,–,–,–,–,B2,"cGMP accumulation (HTRF) EC50, no ligand [11]: 31.2 nM; cGMP accumulation (HTRF) EC50, with 40 pM ANP [11]: 2.07e-08 M; cGMP accumulation (HTRF) EC50, with 80 pM BNP [11]: 1.78e-09 M"
1.76e-08,3.81e-08,36.3,101,97,99,–,–,31,1.52,9.89e-05,65100,117,55,6.71,0.000738,110000,16,99,2.4,B3,C1q-CIC assay Final Value; 100 nM antibody + 100 nM antigen; Result Neg (REGN1945 [12]): 0.37 ug Eq/mL; C1q-CIC assay Final Value; 1 uM antibody + 100 nM antigen; Result Neg (REGN1945 [12]): 0.55 ug Eq/mL; C1q-CIC assay Final Value; 100 nM antibody + 100 nM antigen; Result Neg (R5381 [13]): 0.64 ug Eq/mL; C1q-CIC assay Final Value; 1 uM antibody + 100 nM antigen; Result Neg (R5381 [13]): 0.42 ug Eq/mL; koff (H2aM22033N [7]): 0.000867 s⁻¹; t1/2 (H2aM22033N [7]): 13 min; koff (H2aM22033N [8]): 0.000792 s⁻¹; t1/2 (H2aM22033N [8]): 15 min; koff (H2aM22033N [9]): 0.000811 s⁻¹; t1/2 (H2aM22033N [9]): 14 min; koff (H2aM22033N [10]): 0.000664 s⁻¹; t1/2 (H2aM22033N [10]): 17 min
2.23e-08,3.32e-08,15.5,102,99,99,0.11,0.16,110,0.528,9.42e-05,178000,123,160,0.914,0.000424,464000,27,100,0.381,B4,C1q-CIC assay Final Value; 100 nM antibody + 100 nM antigen; Result Neg (R5381 [3]): 0.22 ug Eq/mL; C1q-CIC assay Final Value; 1 uM antibody + 100 nM antigen; Result Neg (R5381 [3]): 0.2 ug Eq/mL
2.06e-08,3.5e-08,18,104,99,100,–,–,65,0.561,7.11e-05,127000,163,104,1.16,0.000367,317000,31,100,0.543,B5,C1q-CIC assay Final Value; 100 nM antibody + 100 nM antigen; Result Neg (REGN1945 [12]): 0.35 ug Eq/mL; C1q-CIC assay Final Value; 1 uM antibody + 100 nM antigen; Result Neg (REGN1945 [12]): 0.3 ug Eq/mL; C1q-CIC assay Final Value; 100 nM antibody + 100 nM antigen; Result Neg (R5381 [13]): 0.65 ug Eq/mL; C1q-CIC assay Final Value; 1 uM antibody + 100 nM antigen; Result Neg (R5381 [13]): 0.53 ug Eq/mL

# — patent US20220195058A1 (Regeneron, published 2022)
